Test results taken from patent US20260042834A1 (HBM ALPHA THERAPEUTICS, published 2026).
Like-named read-outs stand apart in the source and are kept apart here.

T1: CRH (NT-Biotin) (human and mouse (same sequence), not fully specified; biotin at the N-terminus)
T1 peptide: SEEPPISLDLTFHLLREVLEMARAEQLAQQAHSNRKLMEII

T2: CRH (CT-Biotin) (human and mouse (same sequence), biotin on an added C-terminal K (CRH-K-Biotin))
T2 construct: also called Peptide 4 (CRH-Biotin)
T2 peptide: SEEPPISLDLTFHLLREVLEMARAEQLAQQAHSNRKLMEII

T3: corticotropin-releasing hormone (CRH) peptide (human and mouse (same sequence), not fully specified)
T3 peptide: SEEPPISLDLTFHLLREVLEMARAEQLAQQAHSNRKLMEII

T4: CRH (NT-Biotin) (human and mouse, not fully specified; biotin at the N-terminus)
T4 construct: also called Biotin-CRH; N-terminally biotinylated corticotropin-releasing hormone
T4 peptide: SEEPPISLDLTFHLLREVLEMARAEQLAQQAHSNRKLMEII

T5: corticotropin-releasing hormone (CRH) peptide (human and mouse, not fully specified)
T5 peptide: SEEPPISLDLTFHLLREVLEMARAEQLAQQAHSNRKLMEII

T6: CRH (CT-Biotin) (human and mouse, biotin on the added C-terminal K (-K-Biotin))
T6 construct: also called Peptide 4 (CRH-Biotin); C-terminally biotinylated corticotropin-releasing hormone
T6 peptide: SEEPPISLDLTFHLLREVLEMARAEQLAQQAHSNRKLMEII


What was measured:
[1] = biological target: T1, CRH (NT-Biotin); experiment: ELISA, biotinylated CRH on streptavidin plate
Experimental: (§1) Streptavidin (Thermo, Cat: 21125) was diluted in PBS to a concentration of 2 μg/ml. 100 μl of diluted streptavidin was added per well to ELISA microplates, and the plates were incubated overnight at 4° C. […] 100 μL of 3,3′,5,5′-tetramethylbenzidine (TMB) substrate (Biopanda, Cat: TMB-S-003) was added, and the plates were incubated at room temperature for 15 minutes. 100 μL of ELISA stopping solution (Solarbio, Cat #: C1058) was added to terminate the reaction, and the optical density at 450 nm (OD450 nm) was determined by an ELISA plate reader (Molecular Devices, Spectra max 384 plus).

[2] = biological target: T2, CRH (CT-Biotin); experiment: ELISA, biotinylated CRH on streptavidin plate
Experimental: as §1

[3] = biological target: T3, corticotropin-releasing hormone (CRH) …; experiment: cell-based or functional assay
[4] = biological target: T4, CRH (NT-Biotin); experiment: ELISA, N-terminally biotinylated CRH on streptavidin-coated plate
Experimental: as §1

[5] = biological target: T5, corticotropin-releasing hormone (CRH) …; experiment: cell-based or functional assay
[6] = biological target: T6, CRH (CT-Biotin); experiment: ELISA, C-terminally biotinylated CRH on streptavidin-coated plate
Experimental: as §1

[7] = biological target: T3, corticotropin-releasing hormone (CRH) …; experiment: cell-based or functional assay
[8] = biological target: T2, CRH (CT-Biotin); experiment: ELISA, biotinylated CRH on streptavidin plate
Experimental: as §1

Binder | EC50 [4] | hCRHR1 Reporter IC50 [5] | EC50 [6] | further results
PR301777 (antibody, human IgG1, kappa, V domains shown, Series 5; mouse variable domains, human IgG1 wildtype Fc) VH: EMKLEESGGGLVQPGGSMKLSCVASGFTFSNYWMNWVRQSPEKGLEWVAEIRLKSNNYATHYAESVKGRFTISRDDSKSGVYLQMNNLGAEDTGIYYCTVGTLVYWGQGTLVTVSA VL: DIVLTQSPASLAVSLGQRATISCRASQSVSTSTYNYMHWFQQKPGQPPKLLIKFASNLESGVPARFSGSGSGTDFTLNIHPVEEEDTATFYCQHSWEIPYTFGGGTKLEIKR | – | – | – | EC50 [1]: 0.043 nM; EC50 [2]: 0.043 nM; hCRHR1 Luciferase Reporter Assay IC50 [3]: 0.674 nM; mCrhr1 Luciferase Reporter Assay IC50 [3]: 2.42 nM
PR302036 (antibody, human IgG1, kappa, V domains shown, humanized variant of PR301777) VH: EMQLVESGGGLVQPGGSLRLSCAASGFTFSNYWMNWVRQAPGKGLEWVAEIRLKSNNYATHYAESVKGRFTISRDDSKSSVYLQMNSLKTEDTAVYYCTVGTLVYWGQGTLVTVSS VL: DIVLTQSPDSLAVSLGERATINCRASQSVSTSTYNYMHWFQQKPGQPPKLLIKFASNLESGVPDRFSGSGSGTDFTLTISSLQAEDTAVYYCQHSWEIPYTFGQGTKLEIKR | – | – | – | EC50 [1]: 0.04 nM; EC50 [2]: 0.033 nM; hCRHR1 Luciferase Reporter Assay IC50 [3]: 1.4 nM; mCrhr1 Luciferase Reporter Assay IC50 [3]: 3.03 nM
PR302055 (antibody, human IgG1, kappa, V domains shown, humanized variant of PR301777) VH: EMQLVESGGGLVQPGGSLKLSCAASGFTFSNYWMNWVRQASGKGLEWVAEIRLKSNNYATHYAESVKGRFTISRDDSKSTVYLQMNSLKTEDTAVYYCTVGTLVYWGQGTLVTVSS VL: DIQLTQSPSSLSASVGDRVTITCRASQSVSTSTYNYMHWFQQKPGKAPKLLIKFASNLESGVPSRFSGSGSGTDFTLTISSLQPEDTATYYCQHSWEIPYTFGQGTKLEIKR | – | – | – | EC50 [2]: 0.013 nM; hCRHR1 Luciferase Reporter Assay IC50 [3]: 1.35 nM; mCrhr1 Luciferase Reporter Assay IC50 [3]: 4.67 nM
PR302335 (antibody, human IgG1, kappa, V domains shown, Mouse variable domains, expressed recombinantly with human IgG1 wildtype Fc; also called Series 8 mAb) VH: DVQLVESGGGLVQPGGSRKLSCAASGFTFSSFGMHWVRQAPEKGLEWVAYISSGSTIFYYADTVKGRFTISRDNPKNTLFLQMTSLRSEDTAMYYCARDITTATFAFWGQGTLVTVSA VL: DVVLTQTPLSLPVSLGDQVSISCRSSQNLLHNNGNTYLHWYLQKPGQSPRLLIYKVSNRFSGVPDRFSGSGSGTDFTLKITRVEAEDLGVYFCSQSTHIPWTFGGGTKLEIKR | 0.014 nM | 3.72 nM | 0.016 nM | –
PR302309 (antibody, human IgG1, kappa, V domains shown, Mouse variable domains, expressed recombinantly with human IgG1 wildtype Fc; also called Series 7 mAb) VH: QIQLVQSGPELKKPGETVKISCKASGYTFTNYGMNWVKQAPGKVLKWMGWINTYTGEPIYTDDFKGRFAFSLETSASTAYLQINNLKNEDTATYFCSRSTMITTGGVFAYWGQGTLVTVSA VL: DVLMAQTPLSLPVSLGDQASISCRSSQTIVHSDGNTYLEWYLQKPGQSPKLLIYKVSNRFSGVPDRFSGSGSGTDFTLKISRVEAEDLGVYYCFQGSHVPWTFGGGTKLEIKR | 0.028 nM | 1.38 nM | 0.015 nM | –
PR302315 (antibody, human IgG1, kappa, V domains shown, Mouse variable domains, expressed recombinantly with human IgG1 wildtype Fc; also called Series 8 mAb) VH: DVQLVESGGGLMQPGGSRKLSCVASGFTFSSFGMHWVRQAPEKGLEWVAYISSGSSIIYYADTVKGRFTISRDNPKNILFLQMTSLRSEDTAMYYCARDITTATFAYWGQGTLVTVSA VL: DVVMTQTPLSLPVSLGDQASISCRSSQSLVHSNGNTYLHWYLQKPGQSPKLLIYKVSNRFSGVPDRFSGSGSGTDFTLKISRVEAEDLGVYFCSQSTHVPWTFGGGTKLEIKR | 0.014 nM | 13.9 nM | 0.008 nM | –
PR302324 (antibody, human IgG1, kappa, V domains shown, Mouse variable domains, expressed recombinantly with human IgG1 wildtype Fc; also called Series 10 mAb) VH: EVQLQQSGPELVKPGASVKMSCKASGYTFTDYFMKWVKQSHGGSLEWIGVISPNNGDTFYNQKFKGKATLTVDKSSSTAFMQLNSLTSEDSAVYSCARGTDRALFAYWGQGTLVTVSA VL: DVLMTQTPLSLPVSLGDQASISCRSSQSIVHSDGNTYLEWYLQRPGQSPKLLIYKVSNRFSGVPDRFSGSGSGTDFTLKISRVGAEDLGVYYCFQGSHIPWTFGGGTKLEVKR | 0.019 nM | 0.498 nM | 0.016 nM | –
PR302332 (antibody, human IgG1, kappa, V domains shown, Mouse variable domains, expressed recombinantly with human IgG1 wildtype Fc; also called Series 7 mAb) VH: QIQLVQSGPELKKPGETVKISCKASGYTFTNFGMHWVKQAPGKVLKWMGWINTYTGEPIYAADFKGRFAFSLETSASTAYLQINNLKNEDTATYFCSRSTMITTGGVFAYWGQGTLVTVSA VL: DVLMAQTPLSLPVSLGDQASISCRSSQSIVHSDGNTYLEWYLQKPGQSPKLLIYKVSNRFSGVPDRFSGSGSGTDFTLKISRVEAEDLGVYYCFQGSHVPWTFGGGTKLEIKR | 0.107 nM | 1.93 nM | 0.072 nM | –
PR302341 (antibody, human IgG1, kappa, V domains shown, Mouse variable domains, expressed recombinantly with human IgG1 wildtype Fc; also called Series 10 mAb) VH: EVQLQQSGPELVKPGASVKMSCKASGYTFTDYFMKWVKQSHGESLEWIGVINPNNGDIFYNQKFKGKATLTVDKSSSTAFMQLNSLTSEDSAVYSCARGTDRALFAYWGQGTLVAVSA VL: DVLMTQTPLSLPVSLGDQASISCRSGQSIVHSDGNTYLEWYLQRPGQSPRLLIYKVSNRFSGVPDRFSGSGSGTDFTLKISRVGAEDLGIYYCFQGSHIPWTFGGGTKLEVKR | 0.023 nM | 0.503 nM | 0.017 nM | –
PR302312 (antibody, human IgG1, kappa, V domains shown, Mouse variable domains, expressed recombinantly with human IgG1 wildtype Fc; also called Series 10 mAb) VH: EVQLQQSGPELVKPGASVKMSCKASGYTFTDYFMKWMKQSHGKSLEWIGVINPNNGDTFYNQNFKGKATLTVDKSSSTAYMQLNSLTSEDSAVYYCTRGTARALFAYWGQGTLVTVSA VL: DVLMTQTPLSLPVSLGDQASISCRSSQSIVHSDGNTYLEWYLQRPGQSPKLLIYKVSNRFSGVPDRFSGSGSGTDFTLKISRVGAEDLGVYYCFQGSHVPWTFGGGTKLEVKR | 0.025 nM | 1.37 nM | ~0.011 nM | –
PR005657 (antibody, human IgG1, kappa, V domains shown, PTM-removal variant of PR004290) VH: EVQLVESGGVLVQPGGSLRLSCAASGFTFSSYWMTWVRQAPGKGLEWVANIKQDASEKYYVDSVKGRFTISRDNAKNSLFLQMNSLRAEDTAVYYCARTLIFDYWGQGTLVTVSS VL: DIVMTQSPLSLPVTPGEPASISCRSSQSLLHSTGYNSLEWYLQKPGQSPQLLIYLGSNRASGVPDRFSGSGSGTDFTLKISRVEAEDVGIYYCMQTLQTPITFGQGTRLEIKR | – | – | – | hCRHR1 Luciferase Reporter Assay IC50 [7]: 4.6 nM; mCrhr1 Luciferase Reporter Assay IC50 [7]: 11.8 nM; EC50 [8]: 0.045 nM
PR302328 (antibody, human IgG1, kappa, V domains shown, Mouse variable domains, expressed recombinantly with human IgG1 wildtype Fc; also called Series 9 mAb) VH: EVKLVESGGGLVKPGGSLKLSCAASGFTFSSYAMSWVRQTPEKRLEWVASIRSGGTTYYPDSVKGRFTISRDNARNILYLQMSSLRSEDTAIYYCTRGIDWGQGTLVTVSA VL: NIVMTQTPKFLLVSAGDRVTITCKASQSVNNDVAWYQQKPGQSPKLLIYYASNRYTGVPDRFTGSGYGTDFTFTISTVQAEDLAVYFCQQDYSSWTFGGGTKLEIKR | 0.043 nM | 0.545 nM | 0.03 nM | –
PR302334 (antibody, human IgG1, kappa, V domains shown, Mouse variable domains, expressed recombinantly with human IgG1 wildtype Fc; also called Series 9 mAb) VH: EVKLVESGGGLVKPGGSLKLSCAASGFTFSTYAMSWVRQTPEKRLEWVASIRSGGTTYYPDSVKGRFTISRDNARNILYLQMSSLRSEDTAIYYCTRGIDWGQGTLVTVSA VL: NIVMTQTPKFLLVSAGDRITITCKASQSVNNDVAWYQQKPGQSPKLLIYYASNRYTGVPDRFTGSGYGTDFTFTISTVQAEDLAVYFCQQDYSSWTFGGGTNLEIKR | 0.026 nM | 0.546 nM | 0.021 nM | –
PR302331 (antibody, human IgG1, kappa, V domains shown, Mouse variable domains, expressed recombinantly with human IgG1 wildtype Fc; also called Series 9 mAb) VH: EVKLVESGGGLVKPGGSLKLSCAASGFTFSSYAMSWVRQSPEKRLEWVASIRSGGTTYYPDSVKGRFTISRDNARNILYLQMSSLRSEDTAIYYCTRGIDWGQGTLVTVSA VL: NIVMTQTPKFLLVSAGDRVTIACKASQSVNNDVAWYQQKPGQSPKLLIYYASNRYTGVPDRFTGSGYGTDFTFTISTVQAEDLAVYFCQQDYSSWTFGGGTKLEIKR | 0.016 nM | 0.39 nM | 0.02 nM | –
PR302339 (antibody, human IgG1, kappa, V domains shown, Mouse variable domains, expressed recombinantly with human IgG1 wildtype Fc; also called Series 9 mAb) VH: EVKLVESGGGLVKPGGSLKLSCAASGFTFSSYALSWVRQTPEKRLEWVASIRSGGTTYYPDSVKGRFTISRDNARNILYLQMSSLRSEDTAIYYCTRGIDWGQGTLVTVSA VL: NIVMTQTPKFLLVSAGDRVTITCKASQSVNNDVAWYQQKPGQSPKLLIYYASNRYTGVPDRFTGSGYGTDFTFTISTVQAEDLAVYFCQQDYSSWTFGGGTKLEIKR | 0.018 nM | 0.852 nM | 0.018 nM | –
